{
  "source": "paper PMC11813800",
  "about": "“A concept of natural genome reconstruction.Part 2. Effect of extracellular double-stranded DNA fragments on hematopoietic stem cells”",
  "binders": {"B1": {"name": "(TTAGGG)9 telomeric repeat, 54 bp (dsDNA)", "DNA 1": "TTAGGGTTAGGGTTAGGGTTAGGGTTAGGGTTAGGGTTAGGGTTAGGGTTAGGG", "DNA 2": "CCCTAACCCTAACCCTAACCCTAACCCTAACCCTAACCCTAACCCTAACCCTAA"}},
  "key": {"CD34": {"target": "CD34 (UniProt P28906 32-290)", "sequence (P28906 32-290)": "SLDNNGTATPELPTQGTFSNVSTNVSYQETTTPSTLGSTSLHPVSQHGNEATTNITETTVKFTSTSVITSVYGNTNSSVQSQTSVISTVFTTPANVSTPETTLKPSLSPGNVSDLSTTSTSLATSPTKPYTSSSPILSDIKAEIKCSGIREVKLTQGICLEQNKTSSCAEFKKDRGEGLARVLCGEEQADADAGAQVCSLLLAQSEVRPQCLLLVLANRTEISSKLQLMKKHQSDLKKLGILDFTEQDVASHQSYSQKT", "assay": "EMSA; 10 mM PBS buffer, 37 °C, various ratios and times; native PAGE (6 % or 10 % tris-borate); pH not given", "conditions": "label: P32; blunt"}, "SLAMF5 (CD84)": {"target": "T1, SLAMF5 (CD84) (UniProt Q9UIB8 22-225)", "T1 sequence": "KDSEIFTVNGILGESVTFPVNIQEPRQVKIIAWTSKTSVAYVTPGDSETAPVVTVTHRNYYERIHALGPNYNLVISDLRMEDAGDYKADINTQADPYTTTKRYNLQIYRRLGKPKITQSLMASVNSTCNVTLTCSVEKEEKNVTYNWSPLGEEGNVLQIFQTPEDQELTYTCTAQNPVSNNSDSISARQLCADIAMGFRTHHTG", "assay": "EMSA; 10 mM PBS buffer, 37 °C, various ratios and times; native PAGE (6 % or 10 % tris-borate); pH not given", "conditions": "label: P32; blunt"}},
  "data": [
    {"binder": "B1", "values": [
      {"measurement": "binding result", "setting": "CD34", "result": "binds"},
      {"measurement": "binding result", "setting": "SLAMF5 (CD84)", "result": "binds"}
    ]}
  ]
}
